One molecule from patent US7361341B2, “Methods of treating cancer using antibodies that immunospecifically bind to trail receptors” (Human Genome Sciences, Inc., priority 2001, dated 2008) can be followed below.

Holding throughout (experiment): Specificity phage ELISA
Type in all cases: binding
What all share (conditions): antigen coated at 1 μg/ml, absorbance at 450 nm
A general note: In an ELISA, binding on a coated surface is turned into a signal by an enzyme label.

One experiment deals with T1, TR10 (Homo sapiens, UniProt Q9UBN6, L310S).
T1 sequence (Q9UBN6 56-386 L310S): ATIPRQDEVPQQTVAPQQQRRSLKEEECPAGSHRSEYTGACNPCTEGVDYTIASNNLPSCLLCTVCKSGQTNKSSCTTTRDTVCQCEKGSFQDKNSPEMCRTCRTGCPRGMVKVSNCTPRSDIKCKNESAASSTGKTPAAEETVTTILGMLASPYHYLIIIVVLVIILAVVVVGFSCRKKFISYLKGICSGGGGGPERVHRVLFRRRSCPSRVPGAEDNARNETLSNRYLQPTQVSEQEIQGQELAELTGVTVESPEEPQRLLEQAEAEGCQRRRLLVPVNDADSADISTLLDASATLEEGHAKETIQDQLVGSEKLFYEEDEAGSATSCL
How it is done:
(§1) To determine the specificity of the antibodies which bound TR4, a phage ELISA was performed against human TR4 fusion protein, and a panel of related and unrelated human antigens TR7, TR5, TR10, BlyS (described in International Patent Publication Numbers WO98/18921 and WO00/50597, which are both herein icorprated by reference in their entireties), irrelevant fusion protein and BSA.
(§2) Individual E. coli colonies containing phagemid were inoculated into 5 ml 2YTAG and incubated at 37° C. for 4 hours, shaking. M13K07 helper phage (Pharmacia) was added to each tube to an moi of 10 and incubated for […], the first 30 minutes static and the final 30 minutes with gentle shaking. Cells were pelleted by centrifugation at 3,500 rpm for 10 minutes. The phage containing supernatant (5 ml) was carefully transferred to a fresh tube, 1 ml of 6 MPBS added and then incubated at room temperature for 1 hour to pre-block the phage prior to ELISA.
(§3) Flexible 96-well plates (Falcon) were coated overnight at 4° C. with each antigen (1 μg/ml). All antigens were coated in PBS. After coating, the solutions were removed from the wells, and the plates were blocked for 1 hour at room temperature in MPBS. The plates were washed 3 times with PBS and then 50 μl of pre-blocked phage was added to each well. The plates were incubated at room temperature for 1 hour and then washed with 3 changes of PBST followed by 3 changes of PBS.
(§4) To each well, 50 μl of an anti-M13-HRP conjugate (Pharmacia) at a 1 in 5000 dilution in MPBS was added and the plates incubated at room temperature for 1 hour. Each plate was washed three times with PBST followed by three times with PBS.
(§5) Fifty μl of TMB substrate was then added to each well, and incubated at room temperature for 30 minutes or until colour development. The reaction was stopped by the addition of 25 μl of 0.5 M H2SO4. The signal generated was measured by reading the absorbance at 450 nm (A450) using a microtitre plate reader (Bio-Rad 3550).

The target of the next experiment is BLyS (Homo sapiens, UniProt Q9Y275). How it is done: as §1, §2, §3, §4, §5
Sequence of BLyS (Q9Y275 whole entry): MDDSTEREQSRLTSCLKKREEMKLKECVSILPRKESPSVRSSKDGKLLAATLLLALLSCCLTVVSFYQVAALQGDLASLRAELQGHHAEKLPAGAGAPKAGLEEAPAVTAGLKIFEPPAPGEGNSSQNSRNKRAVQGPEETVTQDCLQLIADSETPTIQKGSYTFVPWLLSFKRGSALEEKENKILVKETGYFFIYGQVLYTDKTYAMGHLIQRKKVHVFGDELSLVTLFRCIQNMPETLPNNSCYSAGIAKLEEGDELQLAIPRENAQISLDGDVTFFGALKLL
In the next experiment the target is TR7 (Homo sapiens, UniProt O14763). How it is done: as §1, §2, §3, §4, §5
Sequence of TR7 (O14763 56-411 isoform O14763-2 limits assumed): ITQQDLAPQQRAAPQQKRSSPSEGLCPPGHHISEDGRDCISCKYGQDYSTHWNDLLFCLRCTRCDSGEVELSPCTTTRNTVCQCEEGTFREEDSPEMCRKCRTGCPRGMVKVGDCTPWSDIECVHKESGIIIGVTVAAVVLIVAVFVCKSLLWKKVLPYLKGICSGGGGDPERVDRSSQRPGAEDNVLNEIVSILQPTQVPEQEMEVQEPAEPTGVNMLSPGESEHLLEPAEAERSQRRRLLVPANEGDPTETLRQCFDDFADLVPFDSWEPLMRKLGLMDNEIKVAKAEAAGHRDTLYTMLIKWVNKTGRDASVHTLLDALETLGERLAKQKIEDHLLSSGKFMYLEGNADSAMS
In the next experiment the target is T2, TR5 (Homo sapiens, UniProt O14798, I229T).
T2 sequence (O14798 with tags, fused parts or gaps I229T limits assumed): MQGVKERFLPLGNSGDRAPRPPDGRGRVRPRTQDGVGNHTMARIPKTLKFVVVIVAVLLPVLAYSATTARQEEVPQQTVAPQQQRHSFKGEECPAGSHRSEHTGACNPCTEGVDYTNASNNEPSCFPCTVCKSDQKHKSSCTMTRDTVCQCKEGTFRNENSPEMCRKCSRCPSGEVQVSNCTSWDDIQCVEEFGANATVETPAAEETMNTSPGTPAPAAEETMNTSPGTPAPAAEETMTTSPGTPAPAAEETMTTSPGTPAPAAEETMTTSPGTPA
How it is done:
as §1, §2, §3, §4, §5

In experiment [1] the test system is irrelevant fusion protein. How it is done:
as §1, §2, §3, §4, §5

The next experiment addresses T3, human TR4 fusion protein (Homo sapiens, UniProt O00220, H141R/R209T).
T3 construct: made in house
How it is done: as §1, §2, §3, §4, §5

T3 sequence (O00220 109-240 H141R/R209T): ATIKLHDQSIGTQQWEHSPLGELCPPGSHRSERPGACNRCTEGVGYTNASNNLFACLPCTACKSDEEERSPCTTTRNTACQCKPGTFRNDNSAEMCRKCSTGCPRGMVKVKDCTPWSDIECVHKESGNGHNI

B1: T1014B11: scFv that immunospecifically binds TRAIL receptor TR4, protein SEQ ID NO:47 (protein)
scFv: EVQLVQSGAEVKKPGASVKVSCKISGDSFTAYFIHWLRQAPGEGLEWMGWFNPISGTAGSPQKFHGRVAMTRDTSISTAYMELTRLASDDTAIYYCARQHHSNTFDPWGQGTLVTVSSGGGGSGGGGSGGGGSAQSALTQPASVSGSPGQSITISCTGTNSDVGGYNYVSWYQQHPGKAPKLMIYEVNNRPSGVSNRFSGSKSGNTASLTISGLQADDEADYYCSSYTTSNTWVFGGGTKLTVLG
modifications: T1014B11 scFv
B1: the “binding to TR10” value with TR10 was “not”. In addition, the “binding to BLyS” value with BLyS is “not”. For the same molecule, the “binding to TR7” value with TR7 is listed as “not”. In addition, the “binding to TR5” value with TR5 is “not”. Moreover, the “binding to an irrelevant fusion protein” value in experiment [1] is “not”. Further, the “binding to TR4” value with human TR4 fusion protein is given as “bind”.
